The target of experiment [1] is VP4 spike protein, unprocessed precursor, porcine rotavirus strain OSU (clone OSU-C5111) (porcine rotavirus strain OSU) (UniProt P11114). As to the kind of experiment: cryo-EM structure; single-particle three-dimensional reconstruction with icosahedral symmetry of vitrified purified virions (NTR-TLP and TR-TLP of strains SA11 and OSU), 200 kV; virions assembled in infected MA104 cells and purified in CsCl gradients; 11.9-15.4 Å (FSC 0.3).

Experiment [2] has as its target VP4 spike protein, unprocessed precursor, rotavirus strain SA11 (clone SA11-C4111) (simian rotavirus strain SA11). Described as above.

Consider two substances from article PMC4038622.

In general, stoichiometry N refers to a count of units in the complex or per binding partner. As for “VP4 spike protein, unprocessed precursor, porcine rotavirus strain OSU (clone OSU-C5111) (from UniProt P11114 1-776) (natural protein)”, the stoichiometry N in experiment [1] worked out at 3. The substance “VP4 spike protein, unprocessed precursor, rotavirus strain SA11 (clone SA11-C4111) (natural protein)” displayed a stoichiometry N in experiment [2] of 3.
